This passage reports percent complementation results from paper PMC12307597.

For this test, the target named is pFAST_(99-114)–FRB–pFAST_(1-98). Put plainly: split reporter.

As for FKBP–pFAST_(115-125), the percent complementation at 5 μM HBR-2,5DM without rapamycin is less than 6.5%.
